Reference: article doi:10.1101/2023.08.11.553006, “Short oligomers rather than rings of human RAD52 promote single-strand annealing” (bioRxiv, 2023)
“And” between values parts separate entries of the source, which are not always exact repeats. Equal values may be shown once.

How the values were obtained:
RAD52(209) = target: T1, RAD52(209) (Homo sapiens, UniProt P43351 1-209); assay: EMSA (native annealing gel); 50-200 nM protein: annealed product runs at protein-free level; at 1 uM a ring band contains both strands (annealed or not unclear); EMSA: 25 mM Tris-acetate pH 7.5, 2 mM Mg(OAc)2, 1 mM DTT, 10 nM ssDNA, 25 C 10 min or 37 C 5 min; mass photometry: 20 mM Tris-HCl pH 7.5, 50 mM NaCl; conditions: protein: recombinant; tags: His tag (pET-15b, Ni-NTA); chain copies: 11; label: 3'-ALEXA488 (Methods: ATTO488) on 48 nt; 3'-ATTO680 on 60 nt; 3' overhang 12 nt (T12) on strand 2
T1 sequence: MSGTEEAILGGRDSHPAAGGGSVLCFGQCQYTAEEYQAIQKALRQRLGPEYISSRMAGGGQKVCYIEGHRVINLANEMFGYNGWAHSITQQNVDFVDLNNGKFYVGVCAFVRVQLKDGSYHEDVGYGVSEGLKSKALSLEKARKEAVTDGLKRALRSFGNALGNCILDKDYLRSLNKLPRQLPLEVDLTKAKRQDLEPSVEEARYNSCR

[1] = target: the molecule itself; assay: mass photometry; label-free single molecules landing on glass slides; Buffer 1 (Tris-HCl 20 mM, NaCl 50 mM, pH 7.5); nanomolar protein concentrations, increasing series; protomers to rings

B1: 48/60 nt annealed product (dsDNA)
DNA 1: GCAATTAAGCTCTAAGCCATCCGCAAAAATGACCTCTTATCAAAAGGA
DNA 2: TCCTTTTGATAAGAGGTCATTTTTGCGGATGGCTTAGAGCTTAATTGCTTTTTTTTTTTT
binding result (RAD52(209)): no binding

B2: full-length human RAD52 (natural protein, UniProt P43351 1-418, looked up)
chain: MSGTEEAILGGRDSHPAAGGGSVLCFGQCQYTAEEYQAIQKALRQRLGPEYISSRMAGGGQKVCYIEGHRVINLANEMFGYNGWAHSITQQNVDFVDLNNGKFYVGVCAFVRVQLKDGSYHEDVGYGVSEGLKSKALSLEKARKEAVTDGLKRALRSFGNALGNCILDKDYLRSLNKLPRQLPLEVDLTKAKRQDLEPSVEEARYNSCRPNMALGHPQLQQVTSPSRPSHAVIPADQDCSSRSLSSSAVESEATHQRKLRQKQLQQQFRERMEKQQVRVSTPSAEKSEAAPPAPPVTHSTPVTVSEPLLEKDFLAGVTQELIKTLEDNSEKWAVTPDAGDGVVKPSSRADPAQTSDTLALNNQMVTQNRTPHSVCHQKPQAKSGSWDLQTYSADQRTTGNWESHRKSQDMKKRKYDPS
notes: RAD52, human, full length; expected monomer molecular weight printed as 48.4 kDa; No removal of the tag is described; Plasmid was a gift from W. Kagawa; source: E. coli BL21(DE3) with pRARE, purified (His-trap Ni-NTA, Hiload 16/600 superdex)
stoichiometry N [1]: 7 protomers per ring to 13 protomers per ring (2×) and 10 protomers per ring and 10.6 protomers per ring

B3: truncated RAD52(209) (domain or fragment, human, UniProt P43351 1-209, looked up)
chain: T1 sequence
notes: expected monomer molecular weight printed as 25.3 kDa; No removal of the tag is described; Plasmid was a gift from S.C; West; also called C-terminally truncated RAD52; source: E. coli BL21(DE3) with pRARE, purified (His-trap Ni-NTA, Hiload 16/600 superdex)
stoichiometry N [1]: 11 protomers per ring
